Data on six proteins can be found in US20200385427.

The target in one series is T1, Antp-PCP.
T1 chain: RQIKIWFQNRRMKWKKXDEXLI

The target of the next series is T2, R9-PCP.
T2 chain: RRRRRRRRRXDEXLI

For another series, the target named is T3, cFΦR4-PCP (not fully specified).
T3 chain: FXRRRRQXDEXLI

A further series deals with T4, peptide 6 (Table 10).
T4 chain: RRRRXFDXXD

The target in the next series is T5, peptide 7 (Table 10).
T5 chain: RRRRRRRRRDXXDX

B1: PTP1B (protein)
chain: MEMEKEFEQIDKSGSWAAIYQDIRHEASDFPCRVAKLPKNKNRNRYRDVSPFDHSRIKLHQEDNDYINASLIKMEEAQRSYILTQGPLPNTCGHFWEMVWEQKSRGVVMLNRVMEKGSLKCAQYWPQKEEKEMIFEDTNLKLTLISEDIKSYYTVRQLELENLTTQETREILHFHYTTWPDFGVPESPASFLNFLFKVRESGSLSPEHGPVVVHCSAGIGRSGTFCLADTCLLLMDKRKDPSSVDIKKVLLEMRKFRMGLIQTADQLRFSYLAVIEGAKFIMGDSSVQDQWKELSHEDLEPPPEHIPPPPRPPKRILEPHN
As to B1, the kcat/KM (dephosphorylation of pCAP peptide) with Antp-PCP worked out at 17400 M⁻¹ s⁻¹; in the series with R9-PCP, 14700 M⁻¹ s⁻¹; in the series with cFΦR4-PCP, 37100 M⁻¹ s⁻¹.

B2: PTPRC (protein)
chain: YKIYDLHKKRSCNLDEQQELVERDDEKQLMNVEPIHADILLETYKRKIADEGRLFLAEFQSIPRVFSKFPIKEARKPFNQNKNRYVDILPYDYNRVELSEINGDAGSNYINASYIDGFKEPRKYIAAQGPRDETVDDFWRMIWEQKATVIVMVTRCEEGNRNKCAEYWPSMEEGTRAFGDVVVKINQHKRCPDYIIQKLNIVNKKEKATGREVTHIQFTSWPDHGVPEDPHLLLKLRRRVNAFSNFFSGPIVVHCSAGVGRTGTYIGIDAMLEGLEAENKVDVYGYVVKLRRQRCLMVQVEAQYILIHQALVEYNQFGETEVNLSELHPYLHNMKKRDPPSEPSPLEAEFQRLPSYRSWRTQHIGNQEENKSKNRNSNVIPYDYNRVPLKHELEMSKESEHDSDESSDDDSDSEEPSKYINASFIMSYWKPEVMIAAQGPLKETIGDFWQMIFQRKVKVIVMLTELKHGDQEICAQYWGEGKQTYGDIEVDLKDTDKSSTYTLRVFELRHSKRKDSRTVYQYQYTNWSVEQLPAEPKELISMIQVVKQKLPQKNSSEGNKHHKSTPLLIHCRDGSQQTGIFCALLNLLESAETEEVVDIFQVVKALRKARPGMVSTFEQYQFLYDVIASTYPAQNGQVKKNNHQEDKIEFDNEVDKVKQDANCVNPLGAPEKLPEAKEQAEGSEPTSGTEGPEHSVNGPASPALNQGS
On to B2, for which the kcat/KM (dephosphorylation of pCAP peptide) with Antp-PCP stood at 22300 M⁻¹ s⁻¹; with R9-PCP it was 2940 M⁻¹ s⁻¹; with cFΦR4-PCP, 35100 M⁻¹ s⁻¹.

B3: VHR (protein)
chain: MSGSFELSVQDLNDLLSDGSGCYSLPSQPCNEVTPRIYVGNASVAQDIPKLQKLGITHVLNAAEGRSFMHVNTNANFYKDSGITYLGIKANDTQEFNLSAYFERAADFIDQALAQKNGRVLVHCREGYSRSPTLVIAYLMMRQKMDVKSALSIVRQNREIGPNDGFLAQLCQLNDRLAKEGKLKP
As to B3, the kcat/KM (dephosphorylation of pCAP peptide) came out at 2030 M⁻¹ s⁻¹ in the series with Antp-PCP, 6240 M⁻¹ s⁻¹ in the series with R9-PCP and 2460 M⁻¹ s⁻¹ with cFΦR4-PCP.

B4: Caspase-3, Human, recombinant protein (protein)
chain: SGISLDNSYKMDYPEMGLCIIINNKNFHKSTGMTSRSGTDVDAANLRETFRNLKYEVRNKNDLTREEIVELMRDVSKEDHSKRSSFVCVLLSHGEEGIIFGTNGPVDLKKITNFFRGDRCRSLTGKPKLFIIQACRGTELDCGIETDSGVDDDMACHKIPVEADFLYAYSTAPGYYSWRNSKDGSWFIQSLCAMLKQYADKLEFMHILTRVNRKVATEFESFSFDATFHAKKQIPCIVSMLTKELYFYH
Consider B4, for which the “decrease of substrate activity relative to peptide 3” value in the series with peptide 6 (Table 10) was “decreased its activity by 53% and 72%, respectively, relative to peptide 3”; in the series with peptide 7 (Table 10), “decreased its activity by 53% and 72%, respectively, relative to peptide 3”.

B5: SHP2 (protein)
chain: AETTDKVKQGFWEEFETLQQQECKLLYSRKEGQRQENKNKNRYKNILPFDHTRVVLHDGDPNEPVSDYINANIIMPEFETKCNNSKPKKSYIATQGCLQNTVNDFWRMVFQENSRVIVMTTKEVERGKSKCVKYWPDEYALKEYGVMRVRNVKESAAHDYTLRELKLSKVGQGNTERTVWQYHFRTWPDHGVPSDPGGVLDFLEEVHHKQESIMDAGPVVVHCSAGIGRTGTFIVIDILIDIIREKGVDCDIDVPKTIQMVRSQRSGMVQTEAQYRFIYMAVQHYIETLQRRI
On to B5, for which the figures for the kcat/KM (dephosphorylation of pCAP peptide) with Antp-PCP, in the series with R9-PCP and in the series with cFΦR4-PCP were 2210 M⁻¹ s⁻¹, 248 M⁻¹ s⁻¹ and 7400 M⁻¹ s⁻¹, respectively.

B6: TCPTP (protein)
chain: MPTTIEREFEELDTQRRWQPLYLEIRNESHDYPHRVAKFPENRNRNRYRDVSPYDHSRVKLQNAENDYINASLVDIEEAQRSYILTQGPLPNTCCHFWLMVWQQKTKAVVMLNRIVEKESVKCAQYWPTDDQEMLFKETGFSVKLLSEDVKSYYTVHLLQLENINSGETRTISHFHYTTWPDFGVPESPASFLNFLFKVRESGSLNPDHGPAVIHCSAGIGRSGTFSLVDTCLVLMEKGDDINIKQVLLNMRKYRMGLIQTPDQLRFSYMAIIEGAKCIKGDSSIQKRWKELSKEDLSPAFDHSPNKIMTEKYN
Take B6: the kcat/KM (dephosphorylation of pCAP peptide) was determined as 970 M⁻¹ s⁻¹ with Antp-PCP, 457 M⁻¹ s⁻¹ with R9-PCP and 2780 M⁻¹ s⁻¹ with cFΦR4-PCP.
